Reference: the supplement of paper PMC9732359
± gives the uncertainty stated by the source.

Experiment: protein stability index of a GFP-peptide fusion (yeast GPS) (PSI 1-4); higher = more stable; sorted into four equal gates, so the index is relative within each strain
Method in brief: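 Yeast carrying a pooled library were grown to mid-log phase in leucine-free medium. Each library plasmid expresses Cherry and has a tiled 17-residue yeast protein peptide fused downstream of GFP. Cells were sorted into four equal gates by GFP/Cherry ratio, and plasmids from each gate were PCR-amplified, Illumina-sequenced and assigned to strains by barcode. Summing, across gates, the read frequency times the gate number gave each peptide's protein stability index.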

| Sequence | protein stability index (doa10∆) | protein stability index (pdr5∆) | protein stability index (san1∆) | protein stability index (ubr1∆) |
| --- | --- | --- | --- | --- |
| MRDKSFGRTLASVTKEI [RPL12A] | 3.25 ± 0.1 | 3.08 ± 0.12 | 2.87 ± 0.13 | 2.81 ± 0.18 |
| MRFNIEIIADWIWDMNV [BRR2] | 2.61 ± 0.066 | 2.12 ± 0.075 | 2.7 ± 0.088 | 2.39 ± 0.041 |
| MSAPQAKILSQAPTELE [RPS7A] | 2.79 ± 0.08 | 2.9 ± 0.068 | 2.41 ± 0.1 | 2.53 ± 0.073 |
| MSDSIISFAAFILADAG [RPP1B] | 1.62 ± 0.069 | 1.35 ± 0.049 | 1.31 ± 0.2 | 1.26 ± 0.057 |
| MSDVEEVVEVQEETVVE [RPS12] | 3.15 ± 0.1 | 3.36 ± 0.11 | 2.89 ± 0.084 | 3.12 ± 0.12 |
| MSGFSLSEYLTKFQTTD [YCS4] |  |  |  | 2.9 ± 0.14 |
| MSGILHCEDKDYKTAFS [RPN6] | 2.95 ± 0.07 | 2.89 ± 0.071 | 2.51 ± 0.072 | 3.16 ± 0.049 |
| MSGSLSRGNGGKKVLNK [POP1] | 1.34 ± 0.15 | 2.48 ± 0.11 | 1.32 ± 0.22 | 2.97 ± 0.11 |
| MSGTTKRLNGKRKYLDI [SSN2] |  |  |  | 3.55 ± 0.12 |
| MSLINDAMVTRTPVIIS [SMD2] | 1.26 ± 0.07 | 1.7 ± 0.066 | 1.47 ± 0.12 | 1.52 ± 0.085 |
| MSNDPGNEVSSLYPPPP [MED7] | 3.21 ± 0.1 | 2.92 ± 0.071 | 2.69 ± 0.082 | 3.08 ± 0.062 |
| MSNTLFDDIFQVSEVDP [RPB8] | 3.02 ± 0.084 | 2.77 ± 0.098 | 2.85 ± 0.1 | 3.08 ± 0.054 |
| MSRSLANGIINVKEITE [SMC3] | 2.63 ± 0.092 | 2.8 ± 0.073 | 2.77 ± 0.12 | 2.87 ± 0.064 |
| MSVDIDKKASMIISGSR [ASC1] | 2 ± 0.24 | 1.95 ± 0.12 | 1.71 ± 0.23 | 1.99 ± 0.074 |
| MSVEPVVVIDGKGHLVG [RPL16A] | 3.13 ± 0.15 | 3.42 ± 0.19 | 2.63 ± 0.11 | 3.1 ± 0.089 |
| MSVSDNDQALIKVLLRQ [RET1] | 2.48 ± 0.052 | 2.62 ± 0.069 | 2.71 ± 0.067 | 2.6 ± 0.053 |
| MTAAVTSSNIVLETHES [RPT6] | 2.65 ± 0.094 | 2.78 ± 0.057 | 2.79 ± 0.081 | 2.48 ± 0.059 |
| MTAQQAPKWYPSEDVAA [RPL6B] | 1.77 ± 0.11 | 1.7 ± 0.074 | 1.84 ± 0.091 | 1.71 ± 0.11 |
| MTEDIEQKKTATEVTPQ [RPC19] | 2.8 ± 0.12 | 3.2 ± 0.093 | 3.1 ± 0.098 | 3.28 ± 0.11 |
| MTLLTDSLRKLYVDSES [MTW1] | 1.45 ± 0.078 | 1.79 ± 0.11 | 1.65 ± 0.11 | 1.59 ± 0.077 |
| MTVTFLILAGQVKVKGQ [YCS4] | 2.34 ± 0.083 | 2.27 ± 0.074 | 2.3 ± 0.086 | 1.83 ± 0.057 |
| MVAATKRRKTHIHKHVK [RET1] | 2.96 ± 0.17 | 3.08 ± 0.15 | 2.31 ± 0.2 | 3.09 ± 0.1 |
| MVALISKKRKLVADGVF [RPS3] |  | 1.85 ± 0.18 | 1.53 ± 0.13 |  |

| Sequence | protein stability index (doa10∆) | protein stability index (pdr5∆) | protein stability index (san1∆) | protein stability index (ubr1∆) |
| --- | --- | --- | --- | --- |
| MVCETDVPSEDDPTQLV [RPO21] | 3.03 ± 0.069 | 3.24 ± 0.12 | 3.37 ± 0.1 | 2.56 ± 0.11 |
| MVMREETIKSLEDPYKY [CSN9] | 1.62 ± 0.08 | 1.66 ± 0.078 | 1.25 ± 0.2 | 1.73 ± 0.054 |
| MVSTPELKKYMDKKILL [SMX2] | 3.25 ± 0.15 | 3.62 ± 0.12 | 3.26 ± 0.092 | 3 ± 0.074 |
| MYCRPAPSDFSENQRQI [GRR1] | 3.13 ± 0.085 | 2.62 ± 0.084 | 3.02 ± 0.078 | 2.66 ± 0.082 |
| NAASQQPTPRSASNTAK [GAL11] | 2.84 ± 0.082 | 2.68 ± 0.055 | 2.78 ± 0.049 | 2.67 ± 0.039 |
| NAEVVAGNIKCRNDAVN [BRR2] | 2.77 ± 0.11 | 3.67 ± 0.16 | 3.05 ± 0.087 | 2.86 ± 0.14 |
| NAIFLSSEQDYSTLKEL [YCG1] | 2.61 ± 0.078 | 2.6 ± 0.11 | 2.18 ± 0.18 | 2.81 ± 0.094 |
| NANTIETAKMIENMTKE [FAS2] | 2.72 ± 0.073 | 3.35 ± 0.078 | 2.97 ± 0.065 | 3.35 ± 0.095 |
| NAPAWFKLSSESVIEQI [RPS13] | 1.98 ± 0.064 | 1.73 ± 0.054 | 2.34 ± 0.13 | 2.48 ± 0.067 |
| NAPTFNPKYDTSNASMN [YAR002W/NUP60] | 3.01 ± 0.046 | 3.08 ± 0.043 | 2.9 ± 0.036 | 3.17 ± 0.046 |
| NCNIKDFKPPYIYSHVN [SWP82] | 2.73 ± 0.086 | 2.77 ± 0.086 | 2.45 ± 0.11 | 2.91 ± 0.057 |
| NDDFSEVFEFKTFNKIQ [BRR2] | 2.01 ± 0.051 | 2.06 ± 0.061 | 2.24 ± 0.083 | 2.64 ± 0.097 |
| NDDIEWMLSICVEWRLP [YJR042W/NUP85] | 1.64 ± 0.069 | 1.53 ± 0.036 | 1.83 ± 0.11 | 1.9 ± 0.058 |
| NDEVNEDEEDDNISSFH [YCG1] | 3.18 ± 0.12 | 3.28 ± 0.12 | 3.31 ± 0.074 | 3.33 ± 0.12 |
| NDILDELLCGMANKEWR [ECM29] | 2.37 ± 0.14 | 1.47 ± 0.098 | 2.72 ± 0.15 | 1.6 ± 0.061 |
| NDLDYDLIADTITNSSS [YML103C/NUP188] | 2.9 ± 0.061 | 3.06 ± 0.067 | 2.99 ± 0.036 | 3.02 ± 0.048 |
| NDNYSSDMENDNLLLNL [REC8] | 2.9 ± 0.09 | 2.96 ± 0.12 | 2.82 ± 0.1 | 3.09 ± 0.12 |
| NDRNPRLNENKKIGCYM [CSN12] | 3.04 ± 0.069 | 3.22 ± 0.072 | 3.12 ± 0.051 | 3.26 ± 0.065 |
| NDSSATRSWRPPQAGDR [RPB8] | 3.06 ± 0.26 |  |  | 2.76 ± 0.26 |
| NDTSSGTNAMLPSPESL [SNF5] | 2.73 ± 0.042 | 2.84 ± 0.049 | 2.74 ± 0.035 | 2.8 ± 0.042 |
| NEESTNERLEINQEKPV [SIR4] | 3.31 ± 0.18 | 3.32 ± 0.13 | 3.37 ± 0.092 | 3.36 ± 0.1 |
| NEFQLQWGKYQTFGVDI [SWI1] | 2.98 ± 0.12 | 3.06 ± 0.09 | 3.09 ± 0.067 | 3.26 ± 0.088 |
